± gives the uncertainty stated by the source.

The data set in a line: amyloid nucleation score (Sup35N fusion, yeast selection) (log enrichment); library NNK3; higher = more nucleation; inactive = no reads after selection. In a few lines:
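Random libraries were run with three technical output replicates. In each, psi-negative yeast expressing Sup35N fused to peptides of 20 random codons were induced 24 hours with 100 μM copper sulfate and grown 7 days at 30°C on medium lacking adenine and uracil, and input and output plasmid inserts were Illumina-sequenced. The nucleation score is the DiMSum log enrichment of output over input reads, centred on the mode score of non-aggregating sequences, and sequences under 100 input reads were excluded.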
On to CDHCRDKCMANRMSSRSLRW, for which the amyloid nucleation score result is “inactive”.
In the case of CDLWIHWS, the amyloid nucleation score result was “inactive”.
Next, CDSRSCFKVYASLAARSDQR: 2.12 ± 0.074; CDVFVSY: “inactive”.
Next, CEKDRMNLWLTRDG: “inactive”; CELGDSGVIDDKIICVCYYL: “inactive”; CEMGFLEPL: “inactive”.
For the substance CEMLMGRVIFWSPQPQLWNY, the amyloid nucleation score entry was “inactive”.
Next, CENIVGMPDRRISSVAGPDG: 0.486 ± 0.33; CESPLERSSAKYCRWGSCWG: “inactive”; CEYCFGMTSLTAWWCYVLRC: “inactive”.
For CEYLGPVYIM, the amyloid nucleation score result was “inactive”.
With CFASWN, the amyloid nucleation score result is “inactive”.
Next, CFCLSRL: “inactive”.
CFDTSLSVPGPMCYWKTKHG: the amyloid nucleation score entry is “inactive”.
Next, CFELDVRDEA: “inactive”; CFIWMSYGVPLNCNCLPQRP: “inactive”; CFLSQLNTSDACVCLRFGWG: “inactive”.
Next, CFNYRLDFTQNWYMLIQCCH: 0.867 ± 0.24.
Next, CFSAASTVKNMIEGCCRGMY: “inactive”.
As to CFSDGPLRVHSIGQRWLRCR, the amyloid nucleation score result is “inactive”.
With CFSFYVGCGRMQEPPRLGAG, the amyloid nucleation score worked out at 0.785 ± 0.18.
Take CFTNNSIHVYSLWIKTRHFF: the amyloid nucleation score is 0.239 ± 0.58.
Substance CFYSNQASQVLLLYHP showed an amyloid nucleation score of 0.771 ± 0.2.
As to CGSVNVSTRYKD, the amyloid nucleation score entry was “inactive”.
Next, CGTFNCYNGAL: 0.699 ± 0.19; CGWIFNLYSRRIQALEGRAS: “inactive”.
Next, CHDLLHVVIEIPVCFLCTKG: 0.807 ± 0.18; CHMCVVLAV: “inactive”; CICKFTDLMHTGACLNILSR: 1.58 ± 0.11.
Next, CIGIYFLIRGTYILIVFSL: -0.607 ± 1; CIKIIIFNVERLVALIIVSL: “inactive”; CILKHSGR: “inactive”.
As for CINIGVMDEWGVAVTLLVKN, the amyloid nucleation score entry was “inactive”.
Next, CIPIMRTPLGTPSN: “inactive”.
Next, CIRLRKANINRKDQKRGCMV: “inactive”; CIWHLHLLFLEGVYV: “inactive”; CKAESLWFNGLF: “inactive”.
Next, CKEHLHQLFMGRCSTV: “inactive”.
CKGLIFISSFANVVLN showed an amyloid nucleation score of 1.52 ± 0.12.
Substance CKLNICRNVEETTIFRLGDV registered an amyloid nucleation score of 1.39 ± 0.11.
In the case of CKLRLWSEFSLVTSRSIYIA, the amyloid nucleation score entry is “inactive”.
Next, CKSNKCSAVMVLVA: “inactive”; CKSSWDVVMSSVSDWFWDGA: “inactive”; CLDHIAPKRKIQEVGLS: “inactive”.
Next, CLFCSALEL: 1.99 ± 0.072; CLIFVWATIDYNYFCLS: 0.6 ± 0.16; CLILSWYKYCSRGEMMHMKH: “inactive”.
Consider CLIVTLTHMS, for which the amyloid nucleation score was determined as 1.64 ± 0.062.
Next, CLLRSSCGWMCLRTGTHCVV: 0.729 ± 0.25; CLLTLMREVSCLLYFYHRAW: 1.56 ± 0.091.
Next, CLMSVSAPFHVFALYIQLFC: “inactive”.
For CLNGPFVCLKYYVCFIAMMF, the amyloid nucleation score entry was “inactive”.
For CLNNRSFNPKMQYPLVTMDH, the amyloid nucleation score entry is “inactive”.
CLSSSINMTMVYCCNSLMFG registered an amyloid nucleation score of 2.13 ± 0.069.
As for CLSTPMVMLICFM, the amyloid nucleation score turned out to be 0.904 ± 0.29.
Next, CLYSSCALGIARDWVVLL: “inactive”; CMGMCELFNTWCYEGKTPIS: “inactive”; CMVSSVKLNFIYIGYGDSGW: “inactive”.
Next, CMVSYASDTGGKESELACVV: “inactive”; CMYSFGEL: “inactive”.
On to CNANGASAVKF, for which the amyloid nucleation score entry is “inactive”.
Next, CNFLGSRLGYFGNYIFI: “inactive”; CNILIISTTLTPKITLTFYC: 1.64 ± 0.13.
Next, CNISERENALETHTMNKFVV: “inactive”.
Next, CNLDLVANT: “inactive”.
As for CNRWNHL, the amyloid nucleation score result was “inactive”.
Take CNSGWGTYVV: the amyloid nucleation score entry is “inactive”.
In the case of CPCRHVFSRLSPF, the amyloid nucleation score entry is “inactive”.
Next, CPNVYIAIPIFS: -0.423 ± 0.63; CPRGPWFFTTTAVTSALNIS: -0.016 ± 0.86; CPTASHNIALLTYDQTRTQY: “inactive”.
As to CPVKHGGLHYSNQSYHSSGG, the amyloid nucleation score entry was “inactive”.
Next, CPYSFEAAEYFRYGRVGYFT: “inactive”; CQCMSFIRTNSYKDFT: “inactive”.
As for CQLAV, the amyloid nucleation score result is “inactive”.
CQLGSSLGDDTEGSVAIPAV: the amyloid nucleation score entry was “inactive”.
With CQRGTVADAPYLQRRLGLLY, the amyloid nucleation score result is “inactive”.
Next, CQSSDFTEFVRKVKRPPQAC: “inactive”; CRACGRWCNSSYIYIY: “inactive”; CRCFLPWGWLV: “inactive”.
Regarding CRDKANVLAAVRRR, the amyloid nucleation score result was “inactive”.
Next, CRHINFMSIIFSFGDSSYRF: 2.2 ± 0.08; CRHPTGKACELCELACFN: “inactive”; CRQSVCFGAVC: “inactive”.
Next, CRTQL: “inactive”; CRVFRNNDYSKVSFWLVSVF: “inactive”.
Next, CRVLDFSFSYFGMIFKLGTI: “inactive”; CRVWEDDFLSNRSGLVRHLT: “inactive”; CRYDKSSLDY: “inactive”.
Turning to CSAIFCVVRGFRRVK, the amyloid nucleation score result was “inactive”.
Next, CSAWGLRKF: 0.673 ± 0.2; CSGAIHYPYRLMRERNFTGR: “inactive”; CSGLSDLSVTLNCYVNCIFL: 2.48 ± 0.077.
Next, CSGTSSFRDLTCGCRHCFVG: 1.3 ± 0.099; CSNGFLFTVRVDTGFPTRI: “inactive”.
Next, CSPRTWCFGYNLFDM: 2.5 ± 0.074; CSRFIREADTWRNRDYWWVF: -0.349 ± 1.2.

(Values after the supplement of paper PMC12042874.)
